Measurements as given in patent publication US20240067720A1 (SHANGHAI JUNSHI BIOSCIENCES, published 2024).

Biological target: T1, hTIGIT expressed on Jurkat reporter cells (hTIGIT/NFAT-luciferase) (human, UniProt Q495A1 22-244)
T1 sequence (looked up): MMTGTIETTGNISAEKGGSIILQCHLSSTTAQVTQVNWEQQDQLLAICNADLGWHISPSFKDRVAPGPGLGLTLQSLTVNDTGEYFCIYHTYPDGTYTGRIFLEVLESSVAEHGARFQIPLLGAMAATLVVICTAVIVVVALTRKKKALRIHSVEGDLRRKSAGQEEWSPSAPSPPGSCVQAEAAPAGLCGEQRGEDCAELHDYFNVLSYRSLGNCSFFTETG
Assay: cell-based or functional assay

EC50 of T cell activation; luminescence of Jurkat hTIGIT/NFAT-luciferase reporter cells co-cultured with CHO cells expressing hPVRL2: 0.0424 µg/mL
B1: humanized anti-TIGIT monoclonal antibody hu20 (antibody, human IgG4 S228P, kappa, V domains shown)
VH: QVQLVQSGAEVKKPGASVKVSCKTSGYAFTEYTMHWVRQAPGKGLEWMGGINPNTGGTTYNQKFQGRVTLTVDKSSSTAYMELSSLRSEDTVVYYCAKLLRLMYYFDYWGQGTLVTVSS
VL: DIQMTQSPSSLSASVGDRVTITCQASQDVRTAVAWYQQKPGKAPKLLIYSASYRYTGVPSRFSGSGSGTDFTFTISSLQPEDIATYYCHQHYITPWTFGGGTKVEIKR
